Data reported in patent US9688764B2, “Methods of treating breast cancer by administering anti-human prolactin receptor (PRLR) antibodies” (REGENERON PHARMACEUTICALS, INC., priority 2013, dated 2017).

Key:
[1] = system: PC3/hPRLR cells; assay: Cell viability (cell kill) assay; type: cell-based, human
How it was run: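 PC3 and PC3/hPRLR (lipofection-generated, FACS-enriched for PRLR) cells exposed 3 days to anti-PRLR ADCs or free DM1-SMe, 500 nM to 5 pM. Viability by CCK8 OD450, digitonin background subtracted, as % of untreated; IC50 from four-parameter fit of 10-point curves.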

[2] = Conjugate characterization: protein and linker/payload concentrations, payload loading (UV, MALDI-TOF, SEC-HPLC, RP-HPLC); type: physicochemical; details: Anti-PRLR-SMCC-DM1 conjugates; Table 9
How it was run: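 Anti-PRLR antibodies were conjugated to DM1 via an SMCC linker, then purified by size exclusion and sterile filtered. Protein and linker/payload concentrations came from UV and MALDI-TOF, and monomer content and free linker-payload from SEC-HPLC and RP-HPLC. Payload loading was determined by UV and by native-versus-conjugated mass difference, with yields based on protein.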

[3] = system: MCF7/PRLR tumors; assay: Tumor growth inhibition in xenograft-bearing mice; type: in vivo, NCr nude mice; details: for effect on MCF7/PRLR tumor growth: multi-dose trial 1, 5 and 15 mg/kg
Text: (§1) Briefly, 20×10^6 MCF7/PRLR cells (ATCC HTB-22 transfected with full length hPRLR as previously described) were implanted subcutaneously into the left mammary fat pad of female NCr nude mice. In other studies, 10×10^6 PC3/PRLR (ATCC CRL-1435 transfected with full length hPRLR as previously described) were implanted subcutaneously into the left flank of male SCID mice. Additionally, 10×10^6 parental T47D (ATCC HTB-133) or […] T47D#11 cells (ATCC HTB-133 serially passaged in vivo as described below) were subcutaneously implanted into the left flank of female CB17 SCID mice. All mice were obtained from Taconic (Hudson, N.Y.). Each bolus of cells was supplemented with a 90-day estrogen release pellet (1.7 mg/pellet; Innovative Research America, Sarasota Fla.). Once tumors had reached an average volume of 250 mm^3, mice were randomized into groups of seven and dosed with anti-PRLR antibody-drug conjugates of the invention or control reagents. Control reagents included PBS vehicle, free methyl-disulfide DM1 (DM1-SMe) and isotype Control 1-DM1.
(§2) In multi-dose studies, mice were dosed once a week for a total of three weeks with tumor volumes and body weights being monitored twice weekly throughout the study. Test ADCs were dosed at 5 and/or 15 mg/kg in the multi-dose studies. In single-dose studies, mice received a single dose of test ADC, and tumor volumes and body weights were monitored twice weekly throughout the study. Test ADCs were dosed at 1, 2.5, 5, and 15 mg/kg in the single-dose studies. Average tumor size as well as tumor growth inhibition relative to the vehicle treated group were calculated for each group. Tumors were measured with calipers twice a week until the average size of the vehicle group reached 1000 mm^3. Tumor size was calculated using the formula (length×width^2)/2. Tumor growth inhibition was calculated according to the following formula: (1−((Tfinal−Tinitial)/(Cfinal−Cinitial)))*100, where T (treated group) and C (control group) represent the mean tumor mass on the day the vehicle group reached 1000 mm^3. […] Results are summarized in Tables 21-25 (multi-dose) and Table 26 (single dose). (NT=not tested in the particular experiment shown).

[4] = system: HEK293 (293) cells; assay: Cell viability (cell kill) assay; type: cell-based
How it was run: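 Anti-PRLR–DM1 ADCs (non-cleavable SMCC linker) or free DM1-SMe, 500 nM to 5 pM for 3 days on parental or hPRLR-overexpressing lines. HEK293: CCK8 OD450; MCF7: Hoechst nuclear counts by imaging.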

[5] = system: PC3/PRLR tumors; assay: Tumor growth inhibition in xenograft-bearing mice; type: in vivo, SCID mice; details: for effect on PC3/PRLR tumor growth: multi-dose, especially at 15 mg/kg; for Average Tumor Growth Inhibition (%): SCID mice
Text: as §1, §2

B1: H1H6953N-DM1 (conjugate)
VH: EVQLLESGGGLVQPGGTLRLSCAASGFTFSAYAMSWVRQAPGKGLEWVSSINVRAGDTYYADSVKGRFTISRDNSKNTLFLLMNSLRAEDTAAYYCAKARYSSNWGFDFWGQGTLVTVSS
VL: DIVMTQSPDSLTVSLGARTTINCQSSQTILHSSNNHNYLAWYQQKPGLPPKLLIYWSSTRESGVPDRFSGSGSGTDFTLTISSLQAEDVAIYYCQQYSNTPYTFGQGTKLEIN
- % Kill ([1]; PC3/PRLR, Table 11, 3 days): 67%
- IC50 ([1]; PC3/PRLR, Table 11, 3 days): 0.86 nM
- % Kill ([1]; PC3/PRLR, Table 15): 76%
- IC50 ([1]; PC3/PRLR, Table 15): 0.68 nM
- Payload:Antibody Molar Ratio (MS) [2]: 2.7
- Payload:Antibody Molar Ratio (UV) [2]: 3.2
- effect on MCF7/PRLR tumor growth [3]: potently inhibited MCF7/PRLR tumor growth
- IC50 ([4]; 293, Table 11, 3 days): 100 nM
- IC50 ([4]; 293, Table 14): 100 nM
- effect on PC3/PRLR tumor growth [5]: demonstrated inhibition of tumor growth

B2: H1H6953N: human IgG1 Fc form of H1M6953N; anti-PRLR; HCVR/LCVR SEQ ID NOs 274/282 (antibody, V domains shown)
VH: B1 VH
VL: B1 VL
modifications: human IgG1 Fc
- Average Tumor Growth Inhibition (%) ([3]; MCF7/PRLR tumors TRIAL #1, multi-dose 15 mg/kg, NCr Nude mice, Day 52): 79%

B3: H1H6958N2-DM1: anti-PRLR antibody H1H6958N2 conjugated to DM1 through an SMCC linker (conjugate)
VH: QVQLVESGGGVVQPGRSLRLSCGASGFTFRNYGMQWVRQGPGKGLEWVTLISFDGNDKYYADSVKGRFTISRDNSKNTLFLQMNSLRTEDTAVYYCARGGDFDYWGQGTLVTVSS
VL: DIQMTQSPSSLSASVGDRVTITCRASQDIRKDLGWYQQKPGKAPKRLIYAASSLHSGVPSRFSGSGSGTEFTLTISSLQPEDFATYYCLQHNSYPMYTFGQGTKLEIK
- % Kill ([1]; PC3/PRLR, Table 11, 3 days): 83%
- IC50 ([1]; PC3/PRLR, Table 11, 3 days): 0.43 nM
- % Kill ([1]; PC3/hPRLR, Table 18): 79%
- IC50 ([1]; PC3/hPRLR, Table 18): 0.5 nM
- Payload:Antibody Molar Ratio (MS) [2]: 3.4
- Payload:Antibody Molar Ratio (UV) [2]: 4.0
- effect on MCF7/PRLR tumor growth [3]: potently inhibited MCF7/PRLR tumor growth
- effect on tumor volume relative to vehicle control tumors ([3]; single dose, 1 mg/kg): significant decrease in tumor volume
- tumor growth inhibition ([3]; single dose, all doses above 1 mg/kg tested (2.5, 5, 15 mg/kg)): > 100%
- % Kill ([4]; 293, Table 19): 90%
- IC50 ([4]; 293, Table 19): 100 nM
- % Kill ([4]; HEK293, Table 13, without PRL): 88%
- IC50 ([4]; HEK293, Table 13, without PRL): 90 nM
- Average Tumor Growth Inhibition (%) ([5]; PC3/PRLR tumors TRIAL #1, multi-dose 5 mg/kg, Day 63): 5%
- effect on PC3/PRLR tumor growth [5]: demonstrated inhibition of tumor growth

B4: H1H6958N2: human IgG1 Fc form of H2M6958N2; anti-PRLR, receptor blocking; HCVR/LCVR SEQ ID NOs 290/298 (antibody, V domains shown)
VH: B3 VH
VL: B3 VL
modifications: human IgG1 Fc
- Average Tumor Growth Inhibition (%) ([3]; MCF7/PRLR tumors, single dose 15 mg/kg, Day 55): 1%

B5: H1H6765P: anti-PRLR antibody, human IgG1 Fc; HCVR/LCVR SEQ ID NOs 18/26 (antibody, V domains shown)
VH: EVQLVESGGGVVRPGGSLRLSCVGSGFSFDDHGMNWVRQGPGKGLEWVSGFNWNGGSTNYAESVKGRFTISRDNARNSLFLQMNSLRAEDTALYYCVRGRSGWFNDAFDVWGPGTMVTVSS
VL: EIVLTQSPGTLSLSPGERATLSCRASQTINSNYLAWYRQKPGQTPRLLIYGTSSRATGIPDRFSGSGSGTDFSLTISRLEPEDFAVFYCQQYAGLPTFGPGTKVDIK
modifications: human IgG1 Fc
- Average Tumor Growth Inhibition (%) ([5]; PC3/PRLR tumors TRIAL #2, multi-dose 15 mg/kg, Day 55): 1%
